Data reported in patent US20240317807A1 (COMPLIX, published 2024).

B1: Alphabody CMPX-383B (designed binder)
chain: MGHHHHHHHHHHSSGHIEGRHGPRPRPRPRPRPRPRPGGMSTEQIQKRTAAIQKRIAAIQKRIYAMTASGGAGAAGAGAGMSIEEITKQIAAIQLRIVGDQVQIAYQTASGAGAGAGGMSTEEIQKQIAAIETQICKIEAAIELKEAGITSDFYFELINKAKTCEAVEALKEHILAAHTPRPRPRPRPRPRPRPGSGKPIPNPLLGLDST
notes: an engineered disulfide bond links helix E to helix C; Has Ala at the position called 40
B2: CMPX_383B_Gly40 (designed binder)
chain: MGHHHHHHHHHHSSGHIEGRHGPRPRPRPRPRPRPRPGGMSTEQIQKRTAAIQKRIAAIQKRIYAMTASGGAGAAGAGAGMSIEEITKQIAAIQLRIVGDQVQIAYQTASGAGAGAGGMSTEEIQKQIAAIETQICKIEAAIELKEAGITSDFYFELINKAKTCEGVEALKEHILAAHTPRPRPRPRPRPRPRPGSGKPIPNPLLGLDST

Legend:
human serum albumin [1] = molecular target: T1, human serum albumin (human, UniProt P02768 25-609); test: solution ELISA, free CPAB detected on milk-blocked plate
T1 construct: also called HSA
Description: (§1) A Nunc plate was blocked O/N with PBS+2% skimmed milk in PBS at 4° C. […] In addition, a ‘calibrator’ dilution series of CPAB (seven 3-fold dilutions starting at 100 nM plus a blank) in 100 mM TRIS+100 mM NaCl+1% BSA at pH 7.4 was prepared. The albumin-CPAB mixtures and the calibrator series were then transferred to the ELISA plate in duplicate (two columns for each series) and incubated for another 30 min at RT while shaking. Detection of plate-bound CPAB was performed with 1/5000 anti-V5-HRP (Invitrogen. R961-25) in PBS+0.1% BSA for 30 min at RT while shaking. After each incubation step, the plate was washed 4× with PBS containing 0.05% Tween 20.

mouse serum albumin = molecular target: T2, mouse serum albumin (mouse, UniProt P07724 25-608); test: as above
T2 construct: also called MSA
Description: as §1

human serum albumin [2] = molecular target: T1, human serum albumin; test: solution ELISA, KD 310 nM against 7.5 nM
Description: as §1

[3] = molecular target: MCL-1 (endogenous, in human multiple myeloma cells such as NCI-H929) (human, UniProt Q07820 1-350); test: cell-based or functional assay
[4] = molecular target: T3, GST-tagged MCL-1 (GST-MCL-1 fusion protein, MCL-1 residues Asp172-Gly327) (human, UniProt Q07820 173-327); test: solution ELISA, free GST-MCL-1 captured on Alphabody phage
T3 construct: not shown: Glutathione S-transferase fusion partner from the pET42 vector (Novagen)
Description: A Nunc plate was coated with 1 μg/mL anti-M13 (Fischer Scientific) in PBS for 2 h at room temperature (RT). The plate was then blocked with 2% skimmed milk in PBS for 2 h at RT while shaking. […] After each incubation step, the plate was washed 4× with PBS containing 0.05% Tween 20, except after the incubation step of the mixture and calibrator samples where the plate was washed 12 times. The plate was developed with Sure Blue and the reaction was stopped with H₂SO₄. Optical densities (ODs) were read at 450 nm.

Sequence of MCL-1 (endogenous, in human multiple myeloma cells such as NCI-H929) (Q07820 whole entry, the tested form may be a part): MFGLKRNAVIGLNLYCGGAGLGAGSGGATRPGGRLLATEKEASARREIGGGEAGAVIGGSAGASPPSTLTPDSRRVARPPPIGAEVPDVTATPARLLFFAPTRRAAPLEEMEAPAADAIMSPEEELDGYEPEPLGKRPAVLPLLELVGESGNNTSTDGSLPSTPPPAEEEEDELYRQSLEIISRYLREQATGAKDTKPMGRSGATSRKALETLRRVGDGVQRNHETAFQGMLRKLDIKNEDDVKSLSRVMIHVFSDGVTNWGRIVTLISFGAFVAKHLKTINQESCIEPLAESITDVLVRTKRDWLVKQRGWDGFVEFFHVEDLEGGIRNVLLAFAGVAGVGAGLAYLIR
T3 sequence (Q07820 173-327): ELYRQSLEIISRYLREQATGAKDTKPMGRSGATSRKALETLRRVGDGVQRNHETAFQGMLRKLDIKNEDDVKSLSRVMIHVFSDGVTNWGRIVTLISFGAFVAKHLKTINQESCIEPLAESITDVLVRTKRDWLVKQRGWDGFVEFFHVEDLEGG
T2 sequence (P07724 25-608 limits assumed): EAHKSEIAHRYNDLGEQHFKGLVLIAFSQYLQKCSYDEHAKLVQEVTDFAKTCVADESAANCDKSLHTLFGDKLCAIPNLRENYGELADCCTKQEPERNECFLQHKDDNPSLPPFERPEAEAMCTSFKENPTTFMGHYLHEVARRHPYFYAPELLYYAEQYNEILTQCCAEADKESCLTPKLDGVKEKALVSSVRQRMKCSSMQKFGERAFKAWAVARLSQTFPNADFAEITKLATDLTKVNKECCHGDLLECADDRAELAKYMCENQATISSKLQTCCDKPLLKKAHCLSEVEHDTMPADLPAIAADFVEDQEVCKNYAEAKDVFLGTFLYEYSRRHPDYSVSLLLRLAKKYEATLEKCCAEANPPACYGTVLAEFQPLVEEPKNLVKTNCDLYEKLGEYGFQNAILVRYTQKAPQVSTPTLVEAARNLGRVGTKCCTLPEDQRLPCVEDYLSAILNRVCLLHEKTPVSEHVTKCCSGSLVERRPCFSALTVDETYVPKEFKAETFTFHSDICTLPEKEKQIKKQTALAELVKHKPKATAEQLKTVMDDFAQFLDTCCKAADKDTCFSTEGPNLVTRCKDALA

Row | Binder | Kd (human serum albumin [1]) | Kd (mouse serum albumin) | fold reduction in affinity against the Gly40 form (human serum albumin [2]) | in vitro IC50 on MM cell line MOLP-8 [3] | in vitro IC50 on MM cell line NCI-H929 [3] | Kd [4]
1 | B1 | 310 nM | 2250 nM | 40 fold | 820 nM | 450 nM | 0.028 nM
2 | B2 | 7.5 nM | 298 nM |  |  |  | 0.043 nM
